T1: DivIVA (Streptococcus pneumoniae (strain R800), UniProt Q8CWP9 1-262)
T1 construct: DivIVA of Streptococcus pneumoniae, PCR from chromosomal DNA of strain R800, cloned in pETPhos; also called Spn-DivIVA; DivVA; source: E. coli BL21(DE3), purified (Ni-NTA agarose)
T1 sequence (looked up): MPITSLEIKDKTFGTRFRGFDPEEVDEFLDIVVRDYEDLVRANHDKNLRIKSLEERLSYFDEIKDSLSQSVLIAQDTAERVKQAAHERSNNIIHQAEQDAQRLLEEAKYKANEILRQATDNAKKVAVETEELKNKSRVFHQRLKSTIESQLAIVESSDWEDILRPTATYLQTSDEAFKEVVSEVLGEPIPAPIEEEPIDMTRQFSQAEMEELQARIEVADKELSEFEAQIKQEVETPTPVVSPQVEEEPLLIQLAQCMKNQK

T2: inactive cytoplasmic domain of StkP-K42R (Streptococcus pneumoniae (strain R800), UniProt Q8DNS0 1-342, K42R)
T2 construct: also called StkP-K42R cytoplasmic domain; source: E. coli BL21(DE3), purified (Ni-NTA agarose)
T2 sequence: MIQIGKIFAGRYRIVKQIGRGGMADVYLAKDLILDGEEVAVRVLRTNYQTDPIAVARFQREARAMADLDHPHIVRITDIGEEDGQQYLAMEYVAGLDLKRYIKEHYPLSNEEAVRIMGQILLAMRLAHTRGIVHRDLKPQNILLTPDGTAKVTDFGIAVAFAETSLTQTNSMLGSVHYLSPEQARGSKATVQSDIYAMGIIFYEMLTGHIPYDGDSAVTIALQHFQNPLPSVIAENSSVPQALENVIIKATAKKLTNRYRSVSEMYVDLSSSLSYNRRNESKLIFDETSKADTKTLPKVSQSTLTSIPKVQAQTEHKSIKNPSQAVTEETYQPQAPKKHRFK

B1: DivIVA (natural protein)
chain: T1 sequence (looked up)
B2: GpsB (natural protein, Streptococcus pneumoniae (strain R800), UniProt C1CIN3 1-109, looked up)
chain: MASIIFSAKDIFEQEFGREVRGYNKVEVDEFLDDVIKDYETYAALVKSLRQEIADLKEELTRKPKPSPVQAEPLEAAITSSMTNFDILKRLNRLEKEVFGKQILDNSDF
notes: GpsB of Streptococcus pneumoniae, PCR from chromosomal DNA of strain R800, cloned in pETPhos; In the SPR either coupled to the chip by its amino groups or injected as analyte; also called Spn-GpsB; source: E. coli BL21(DE3), purified (Ni-NTA agarose)

Columns and labels:
Assay in all cases: SPR; BIAcore T100; EzrA or GpsB covalently coupled through amino groups to a CM5 chip; analytes 0.002-1 µM at 30 µL/min in 10 mM HEPES pH 7.4, 150 mM NaCl, 0.005% surfactant; apparent KD from the equilibrium signal (Req); triplicate
[1] = molecular target: EzrA without its N-terminal transmembrane domain (Streptococcus pneumoniae (strain R800))
Chain of EzrA without its N-terminal transmembrane domain (Streptococcus pneumoniae (strain R800)) (B1IAY5 28-575 limits assumed): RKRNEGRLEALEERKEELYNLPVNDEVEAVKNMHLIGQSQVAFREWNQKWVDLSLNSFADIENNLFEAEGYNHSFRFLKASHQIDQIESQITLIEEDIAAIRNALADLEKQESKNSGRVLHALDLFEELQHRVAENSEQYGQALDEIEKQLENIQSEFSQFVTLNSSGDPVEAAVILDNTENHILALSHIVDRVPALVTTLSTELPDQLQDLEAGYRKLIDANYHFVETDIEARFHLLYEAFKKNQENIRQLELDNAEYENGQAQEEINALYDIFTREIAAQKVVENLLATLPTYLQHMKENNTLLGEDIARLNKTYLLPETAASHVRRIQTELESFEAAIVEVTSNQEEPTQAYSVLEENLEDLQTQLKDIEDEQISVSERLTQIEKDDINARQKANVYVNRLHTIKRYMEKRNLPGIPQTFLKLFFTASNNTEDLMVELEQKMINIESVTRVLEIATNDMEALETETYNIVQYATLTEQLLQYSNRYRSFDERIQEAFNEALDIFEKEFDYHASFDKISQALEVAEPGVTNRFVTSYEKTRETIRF

DivIVA = molecular target: T1, DivIVA; details: both partners purified
[2] = molecular target: T2, inactive cytoplasmic domain of StkP-K42R; details: both partners purified

Row | Molecule | Kd [1] | Kd (DivIVA) | Kd [2]
1 | GpsB (from UniProt C1CIN3 1-109) (natural protein) | 770 nM |  | 
2 | FtsZ (from UniProt A0A0H2ZNE0 1-419) (natural protein) | 295 nM |  | 
3 | B1 | 530 nM |  | 
4 | B2 |  | 85 ± 14 nM | 500 ± 60 nM
